Test results as given in article PMC11988671, “SIRT7 Is a Lysine Deacylase with a Preference for Depropionylation and Demyristoylation” (International Journal of Molecular Sciences, 2025).
Values joined by “and” are separate entries in the source; they are usually repeats but may differ in a detail not shown here. Identical values can stand only once.

How the values were obtained:
[1] = substrate: NC(=O)c1ccc[n+]([C@@H]2O[C@H](COP(=O)([O-])OP(=O)(O)OC[C@H]3O[C@@H](n4cnc5c(N)ncnc54)[C@H](O)[C@@H]3O)[C@@H](O)[C@H]2O)c1; test: Enzyme kinetics with variable NAD^+ (in vitro deacylation, Michaelis-Menten), SIRT7 in presence of RNA; assay type: biochemical, mouse; details: for Km: in the presence of RNA; for kcat: NAD^+-dependent deacylation
Description: (§1) In the case of the SIRT1 enzymatic reaction, 8 µM peptide was incubated in 50 µL reaction buffer containing 10 mM NaCl, 10 mM KCl, 20 mM Tris-HCl pH 8.0, 1.0 mM NAD^+, and 1 mM DTT, with or without 1 µg recombinant SIRT1. The reaction mixtures were incubated for 24 h for SIRT7 or 2 h for SIRT1 at 37 °C.
(§2) For enzyme kinetics with variable concentrations of the NAD^+ substrate, an in vitro deacylation assay was performed using wild-type SIRT7 and SIRT1 with serial dilutions of the NAD^+ substrate. The reaction was incubated at 37 °C for the appropriate time, which was within the linear part of the progression curve (60 min for SIRT7 and 10 min for SIRT1). […] Each enzymatic assay was conducted in triplicate, and the resulting data were plotted and fitted to the Michaelis–Menten equation using GraphPad Prism version 8.0.2 (GraphPad Software, Boston, MA, USA).
(§3) The general conditions for electrospray ionization-MS were as follows: nebulizer gas, N2, delivered at 50 psi; nebulizer gas temperature, 250 °C; capillary voltage, 3500 V; and collision gas, G1 grade N2 (Taiyo Nippon Sanso Corporation, Tokyo, Japan).

[2] = substrate: NC(=O)c1ccc[n+]([C@@H]2O[C@H](COP(=O)([O-])OP(=O)(O)OC[C@H]3O[C@@H](n4cnc5c(N)ncnc54)[C@H](O)[C@@H]3O)[C@@H](O)[C@H]2O)c1; test: Enzyme kinetics with variable NAD^+ (in vitro deacetylation, Michaelis-Menten), SIRT1; assay type: biochemical, mouse; details: other: SIRT1 with the H3K9Ac peptide
Description: as §1, §2, §3

B1: SIRT7 (Mus musculus) (protein)
chain: MAAGGGLSRSERKAAERVRRLREEQQRERLRQVSRILRKAAAERSAEEGRLLAESEDLVTELQGRSRRREGLKRRQEEVCDDPEELRRKVRELAGAVRSARHLVVYTGAGISTAASIPDYRGPNGVWTLLQKGRPVSAADLSEAEPTLTHMSITRLHEQKLVQHVVSQNCDGLHLRSGLPRTAISELHGNMYIEVCTSCIPNREYVRVFDVTERTALHRHLTGRTCHKCGTQLRDTIVHFGERGTLGQPLNWEAATEAASKADTILCLGSSLKVLKKYPRLWCMTKPPSRRPKLYIVNLQWTPKDDWAALKLHGKCDDVMQLLMNELGLEIPVYNRWQDPIFSLATPLRAGEEGSHSRKSLCRSREEAPPGDQSDPLASAPPILGGWFGRGCAKRAKRKKVA
notes: HaloTag (N, cleaved yes); made in house; host or cells: E. coli K12 KRX
kcat/Km ([1]; other: acetyl H3K18 peptide): 0.844 ± 0.024 M⁻¹ s⁻¹ | Km ([1]; other: acetyl H3K18 peptide (H3K18Ac)): 445.3 ± 28.5 µM | kcat ([1]; other: acetyl H3K18 peptide): 0.000376 ± 1.52e-05 s⁻¹ | kcat/Km ([1]; other: butyryl H3K18 peptide): 2.10 ± 0.061 M⁻¹ s⁻¹ | kcat ([1]; other: butyryl H3K18 peptide): 0.00143 ± 0.00015 s⁻¹ | Km ([1]; other: butyryl H3K18 peptide): 678.6 ± 83.6 µM | kcat/Km ([1]; other: myristoyl H3K18 peptide): 11.9 ± 0.695 M⁻¹ s⁻¹ | kcat ([1]; other: myristoyl H3K18 peptide): 0.00183 ± 8.23e-05 s⁻¹ | Km ([1]; other: myristoyl H3K18 peptide): 153 µM and 153.2 ± 8.8 µM | kcat/Km ([1]; other: octanoyl H3K18 peptide): 3.74 ± 0.124 M⁻¹ s⁻¹ | kcat ([1]; other: octanoyl H3K18 peptide): 0.00176 ± 6.48e-05 s⁻¹ | Km ([1]; other: octanoyl H3K18 peptide): 470.0 ± 16.7 µM | kcat/Km ([1]; other: palmitoyl H3K18 peptide): 2.35 ± 0.224 M⁻¹ s⁻¹ | kcat ([1]; other: palmitoyl H3K18 peptide): 0.00149 ± 0.000101 s⁻¹ | Km ([1]; other: palmitoyl H3K18 peptide): 633 µM and 633.5 ± 37.5 µM | kcat/Km ([1]; other: propionyl H3K18 peptide): 10.9 ± 0.633 M⁻¹ s⁻¹ | kcat ([1]; other: propionyl H3K18 peptide): 0.00202 ± 4.14e-05 s⁻¹ | Km ([1]; other: propionyl H3K18 peptide): 185.1 ± 7.6 µM | kcat/Km ([1]; other: succinyl H3K18 peptide): 2.01 ± 0.390 M⁻¹ s⁻¹ | kcat ([1]; other: succinyl H3K18 peptide): 0.000224 ± 1.68e-05 s⁻¹ | Km ([1]; other: succinyl H3K18 peptide): 114 µM and 114.9 ± 30.4 µM

B2: SIRT1 (Mus musculus) (protein)
chain: MADEVALALQAAGSPSAAAAMEAASQPADEPLRKRPRRDGPGLGRSPGEPSAAVAPAAAGCEAASAAAPAALWREAAGAAASAEREAPATAVAGDGDNGSGLRREPRAADDFDDDEGEEEDEAAAAAAAAAIGYRDNLLLTDGLLTNGFHSCESDDDDRTSHASSSDWTPRPRIGPYTFVQQHLMIGTDPRTILKDLLPETIPPPELDDMTLWQIVINILSEPPKRKKRKDINTIEDAVKLLQECKKIIVLTGAGVSVSCGIPDFRSRDGIYARLAVDFPDLPDPQAMFDIEYFRKDPRPFFKFAKEIYPGQFQPSLCHKFIALSDKEGKLLRNYTQNIDTLEQVAGIQRILQCHGSFATASCLICKYKVDCEAVRGDIFNQVVPRCPRCPADEPLAIMKPEIVFFGENLPEQFHRAMKYDKDEVDLLIVIGSSLKVRPVALIPSSIPHEVPQILINREPLPHLHFDVELLGDCDVIINELCHRLGGEYAKLCCNPVKLSEITEKPPRPQKELVHLSELPPTPLHISEDSSSPERTVPQDSSVIATLVDQATNNNVNDLEVSESSCVEEKPQEVQTSRNVENINVENPDFKAVGSSTADKNERTSVAETVRKCWPNRLAKEQISKRLEGNQYLFVPPNRYIFHGAEVYSDSEDDVLSSSSCGSNSDSGTCQSPSLEEPLEDESEIEEFYNGLEDDTERPECAGGSGFGADGGDQEVVNEAIATRQELTDVNYPSDKS
notes: as for B1
Km [2]: 14 µM
